The values below come from patent US20260250338A1.

The test addresses CD16aF allelic variant of CD16a expressed on Jurkat cells (human) (UniProt P08637). The test is described as follows: flow cytometry on Jurkat cells expressing CD16aF, conditions as in Example 2.

Sequence of CD16aF allelic variant of CD16a expressed on Jurkat cells (human) (P08637 17-254, change not shown): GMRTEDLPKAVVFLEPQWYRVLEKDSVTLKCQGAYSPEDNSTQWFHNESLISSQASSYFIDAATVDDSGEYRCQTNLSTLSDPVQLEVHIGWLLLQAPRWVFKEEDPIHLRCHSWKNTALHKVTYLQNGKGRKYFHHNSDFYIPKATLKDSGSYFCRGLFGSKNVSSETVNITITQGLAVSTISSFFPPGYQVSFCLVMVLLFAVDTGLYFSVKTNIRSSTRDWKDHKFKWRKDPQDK

B1: Construct 25 (SEQ ID NO: 94), CD117 × CD16a, CD117 binder SEQ ID NO: 84 N-terminal of DARPin #7 (designed binder)
chain: MRGSHHHHHHGSDLGQKLLKAAQYGQDDEVRILLAAGADVNAKDWAGKTPLHVAAEAGHLEIVEVLLKAGADVNAKDKAGETPLHLAAEQGHLEIVEVLLKAGADVNAQDEWGQTPADLAAYYGLEDIAEVLQKAAGSPTPTPTTPTPTPTTPTPTPTGSDLGQKLLRAAKKGQDDEVRELLKAGADVNAKDEQGWTPLHNAAWKGHLEIVEVLLKAGADVNAKDVFDWTPLHVAAHFGHLEIVEVLLKAGADVNAQDRAGETPADLAAQAGHEDIAEVLQKAA
Consider B1, for which the EC50 – broadly, the concentration at which the effect is half-maximal – was found to be 0.0232 µM.
